For data set [1], the system named is HeLa Kyoto. Description: solubility in G1/S (NP-40 vs SDS abundance) (log2 ratio); higher = more soluble. Conditions: cell cycle stage: G1/S.
The subject of data set [2] is HeLa Kyoto. The data set is described as follows: melting temperature (median over replicates), in situ; higher = more thermally stable.
Data set [3] has as its system HeLa Kyoto. The data set is described as follows: solubility change mitosis vs G1/S (difference of NP-40 vs SDS log2 ratios) (log2 ratio difference); higher = more soluble in mitosis.
The subject of data set [4] is HeLa Kyoto. Description: thermal stability score vs G1/S (z-score of summed log2 fold changes over temperatures); higher = more thermally stable than in G1/S.
The mark [5] stands for this setting: cell cycle stage: early G1 (4.5 h after nocodazole release).
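Wherever melting temperature (median over replicates), in situ is given: HeLa Kyoto cells synchronized by double thymidine or nocodazole block, proteins quantified by TMT10plex mass spectrometry, three independent biological replicates.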
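Wherever solubility change mitosis vs G1/S (difference of NP-40 vs SDS log2 ratios) is given: synchronized HeLa Kyoto cells (double thymidine block for G1/S, nocodazole release for mitosis), protein amounts in NP-40 versus SDS lysates quantified by mass spectrometry, three biological replicates.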
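Wherever solubility in G1/S (NP-40 vs SDS abundance) is given: HeLa Kyoto cells arrested at G1/S by double thymidine block, proteins quantified by TMT10plex mass spectrometry in mild NP-40 versus SDS extracts, three biological replicates.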
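Wherever thermal stability score vs G1/S (z-score of summed log2 fold changes over temperatures) is given: synchronized HeLa Kyoto cells, proteins quantified by TMT10plex mass spectrometry, three biological replicates, mitosis taken 0.5 h after nocodazole release, G1/S directly after double thymidine block.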

Chain of TIMM17B (chain, as listed by the source): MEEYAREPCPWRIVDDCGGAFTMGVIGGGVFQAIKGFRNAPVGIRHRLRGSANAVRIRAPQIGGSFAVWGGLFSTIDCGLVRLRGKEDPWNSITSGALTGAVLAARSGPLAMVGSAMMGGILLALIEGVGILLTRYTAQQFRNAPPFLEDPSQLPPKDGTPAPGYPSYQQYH

Take “MAALAPVGSPASRGPRLAAGLRLLPMLGLLQLLAEPGLGRVHHLALKDDVRHKVHLNTFGFFKDGYMVVNVSSLSLNEPEDKDVTIGFSLDRTKNDGFSSYLDEDVNYCILKKQSVSVTLLILDISRSEVRVKSPPEAGTQLPKIIFSRDEKVLGQSQEPNVNPASAGNQTQKTQDGGKSKRSTVDSKAMGEKSFSVHNNGGAVSFQFFFNISTDDQEGLYSLYFHKCLGKELPSDKFTFSLDIEITEKNPDSYLSAGEIPLPKLYISMAFFFFLSGTIWIHILRKRRNDVFKIHWLMAALPFTKSLSLVFHAIDYHYISSQGFPIEGWAVVYYITHLLKGALLFITIALIGTGWAFIKHILSDKDKKIFMIVIPLQVLANVAYIIIESTEEGTTEYGLWKDSLFLVDLLCCGAILFPVVWSIRHLQEASATDGKGDSMGPLQQRANLRAGSRIESHHFAQADLELLASSCPPASVSQRAGITAAINLAKLKLFRHYYVLIVCYIYFTRIIAFLLKLAVPFQWKWLYQLLDETATLVFFVLTGYKFRPASDNPYLQLSQEEEDLEMESVVTTSGVMESMKKVKKVTNGSVEPQGEWEGAV [GPR107]”: the “solubility in G1/S (log2)” value in data set [1] was -0.0201. Further, the melting temperature in data set [2] (cell cycle stage: mitosis) stood at 53.4 °C. For the same substance, in data set [3], the “solubility change mitosis (log2)” value was -0.385. Further, the thermal stability score in data set [4] (setting [5]) was 0.348; in data set [4] (cell cycle stage: mitosis), -0.468.

For the substance “MPKHEFSVDMTCGGCAEAVSRVLNKLGGVKYDIDLPNKKVCIESEHSMDTLLATLKKTGKTVSYLGLE [ATOX1]”, the “solubility in G1/S (log2)” value in data set [1] was -0.375. Also, the melting temperature in data set [2] (cell cycle stage: G1/S) was found to be 54.8 °C; in data set [2] (cell cycle stage: mitosis), 52.8 °C. In addition, in data set [3], the “solubility change mitosis (log2)” value was determined as 0.149. In addition, the results for the thermal stability score in data set [4] (setting [5]) and in data set [4] (cell cycle stage: mitosis) were -3.27 and -2.04, respectively.

“MWGDSRPANRTGPFRGSQEERFAPGWNRDYPPPPLKSHAQERHSGNFPGRDSLPFDFQGHSGPPFANVEEHSFSYGARDGPHGDYRGGEGPGHDFRGGDFSSSDFQSRDSSQLDFRGRDIHSGDFRDREGPPMDYRGGDGTSMDYRGREAPHMNYRDRDAHAVDFRGRDAPPSDFRGRGTYDLDFRGRDGSHADFRGRDLSDLDFRAREQSRSDFRNRDVSDLDFRDKDGTQVDFRGRGSGTTDLDFRDRDTPHSDFRGRHRSRTDQDFRGREMGSCMEFKDREMPPVDPNILDYIQPSTQDREHSGMNVNRREESTHDHTIERPAFGIQKGEFEHSETREGETQGVAFEHESPADFQNSQSPVQDQDKSQLSGREEQSSDAGLFKEEGGLDFLGRQDTDYRSMEYRDVDHRLPGSQMFGYGQSKSFPEGKTARDAQRDLQDQDYRTGPSEEKPSRLIRLSGVPEDATKEEILNAFRTPDGMPVKNLQLKEYNTGYDYGYVCVEFSLLEDAIGCMEANQGTLMIQDKEVTLEYVSSLDFWYCKRCKANIGGHRSSCSFCKNPREVTEAKQELITYPQPQKTSIPAPLEKQPNQPLRPADKEPEPRKREEGQESRLGHQKREAERYLPPSRREGPTFRRDRERESWSGETRQDGESKTIMLKRIYRSTPPEVIVEVLEPYVRLTTANVRIIKNRTGPMGHTYGFIDLDSHAEALRVVKILQNLDPPFSIDGKMVAVNLATGKRRNDSGDHSDHMHYYQGKKYFRDRRGGGRNSDWSSDTNRQGQQSSSDCYIYDSATGYYYDPLAGTYYDPNTQQEVYVPQDPGLPEEEEIKEKKPTSQGKSSSKKEMSKRDGKEKKDRGVTRFQENASEGKAPAEDVFKKPLPPTVKKEESPPPPKVVNPLIGLLGEYGGDSDYEEEEEEEQTPPPQPRTAQPQKREEQTKKENEEDKLTDWNKLACLLCRRQFPNKEVLIKHQQLSDLHKQNLEIHRKIKQSEQELAYLERREREGKFKGRGNDRREKLQSFDSPERKRIKYSRETDSDRKLVDKEDIDTSSKGGCVQQATGWRKGTGLGYGHPGLASSEEAEGRMRGPSVGASGRTSKRQSNETYRDAVRRVMFARYKELD [RBM6]”: the “solubility in G1/S (log2)” value in data set [1] is -0.757. Further, the figures for the melting temperature in data set [2] (cell cycle stage: G1/S) and in data set [2] (cell cycle stage: mitosis) were 48.2 °C and 50 °C, respectively. Also, the “solubility change mitosis (log2)” value in data set [3] worked out at 0.361. For the same substance, the thermal stability score in data set [4] (setting [5]) worked out at 1.19; in data set [4] (cell cycle stage: mitosis) it was 1.84.

For the substance TIMM17B, the “solubility in G1/S (log2)” value in data set [1] is 0.308. Also, the melting temperature in data set [2] (cell cycle stage: G1/S) was 54.9 °C; in data set [2] (cell cycle stage: mitosis), 57.2 °C. The “solubility change mitosis (log2)” value in data set [3] is 0.0028. Further, the thermal stability score in data set [4] (setting [5]) is -0.611; in data set [4] (cell cycle stage: mitosis), -0.727.

GCHFR: the “solubility in G1/S (log2)” value in data set [1] was 0.27. The melting temperature in data set [2] (cell cycle stage: G1/S) stood at 55 °C; in data set [2] (cell cycle stage: mitosis), 59.7 °C. Moreover, the “solubility change mitosis (log2)” value in data set [3] stood at 0.498. Also, the thermal stability score was -1.12 in data set [4] (setting [5]) and -0.945 in data set [4] (cell cycle stage: mitosis).

Regarding SAMD9, the “solubility in G1/S (log2)” value in data set [1] is -0.156. The melting temperature was 47.5 °C in data set [2] (cell cycle stage: G1/S) and 49.2 °C in data set [2] (cell cycle stage: mitosis). Moreover, the “solubility change mitosis (log2)” value in data set [3] was -0.171. The results for the thermal stability score in data set [4] (setting [5]) and in data set [4] (cell cycle stage: mitosis) were 0.5 and 1.68, respectively.

Values taken from the supplement of paper PMC5998384.
